The results in this text go back to patent publication US20170281716.

The target in data set [1] is T1, endogenous IL-36γ.
T1 chain: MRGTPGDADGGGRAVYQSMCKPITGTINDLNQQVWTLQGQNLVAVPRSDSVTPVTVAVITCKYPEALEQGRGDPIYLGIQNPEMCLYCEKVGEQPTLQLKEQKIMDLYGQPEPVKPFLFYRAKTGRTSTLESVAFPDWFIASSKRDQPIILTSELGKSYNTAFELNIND

The target of data set [2] is T2, Full-length poly-histidine-tagged human IL-36β.
T2 chain: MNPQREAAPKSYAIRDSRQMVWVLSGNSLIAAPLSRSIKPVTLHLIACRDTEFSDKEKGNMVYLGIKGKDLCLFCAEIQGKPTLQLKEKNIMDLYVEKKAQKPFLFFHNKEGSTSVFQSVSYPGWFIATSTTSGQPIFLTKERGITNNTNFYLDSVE

For data set [3], the target named is T3, biotin-FLF-CMK.
T3 chain: FLF

In data set [4] the target is T4, DEVD-modified IL-36β, full length unprocessed.
T4 sequence (Q9NZH7 whole entry, species assumed, looked up): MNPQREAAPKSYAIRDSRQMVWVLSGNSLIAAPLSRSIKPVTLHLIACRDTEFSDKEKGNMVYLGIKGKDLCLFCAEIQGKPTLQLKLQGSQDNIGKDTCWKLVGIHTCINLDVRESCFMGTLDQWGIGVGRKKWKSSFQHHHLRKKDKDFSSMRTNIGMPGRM

In data set [5] the target is T5, DEVD-modified IL-36γ, full length.
T5 sequence (Q9NZH8 whole entry, species assumed, looked up): T1 chain

B1: Purified Neutrophil-derived Elastase (protein)
chain: IVGGRRARPHAWPFMVSLQLRGGHFCGATLIAPNFVMSAAHCVANVNVRAVRVVLGAHNLSRREPTRQVFAVQRIFENGYDPVNLLNDIVILQLNGSATINANVQVAQLPAQGRRLGNGVQCLAMGWGLLGRNRGIASVLQELNVTVVTSLCRRSNVCTLVRGRQAGVCFGDSGSPLVCNGLIHGIASFVRGGCASGLYPDAFAPVAQFVNWIDSIIQ
In the case of B1, in data set [1], the “proteolysis of endogenous IL-36γ from keratinocyte extracts and supernatants, immunoblot” value is “IL-36γ incubated with elastase resulted in robust IL-36γ proteolysis both intracellularly as well as extracellularly”; the “proteolysis of endogenous IL-36γ in psoriatic skin homogenates, immunoblot” value was “incubating these psoriatic homogenates with neutrophil elastase resulted in IL-36γ proteolysis”.

B2: purified cathepsin K (protein)
chain: APDSVDYRKKGYVTPVKNQGQCGSCWAFSSVGALEGQLKKKTGKLLNLSPQNLVDCVSENDGCGGGYMTNAFQYVQKNRGIDSEDAYPYVGQEESCMYNPTGKAAKCRGYREIPEGNEKALKRAVARVGPVSVAIDASLTSFQFYSKGVYYDESCNSDNLNHAVLAVGYGIQKGNKHWIIKNSWGENWGNKGYILMARNKNNACGIANLASFPKM
B2: the “cleavage and activation of IL-36β” value in data set [2] is “cathepsin K, a protease predominantly expressed in osteoclasts, can cleave and activate IL-36β (beta) at the same residue as Cathepsin G (NPQR5 EAAP)”.

B3: Purified Neutrophil-derived Cathepsin G (protein)
chain: IIGGRESRPHSRPYMAYLQIQSPAGQSRCGGFLVREDFVLTAAHCWGSNINVTLGAHNIQRRENTQQHITARRAIRHPQYNQRTIQNDIMLLQLSRRVRRNRNVNPVALPRAQEGLRPGTLCTVAGWGRVSMRRGTDTLREVQLRVQRDRQCLRIFGSYDPRRQICVGDRRERKAAFKGDSGGPLLCNNVAHGIVSYGKSSGVPPEVFTRVSSFLPWIRTTMRS
Consider B3, for which the “depletion of cathepsin G activity from degranulates with streptavidin agarose (FLF-sBzl hydrolysis; IL-36β bioassay)” value in data set [3] is listed as “selective depletion of cathepsin G activity from PMA-treated neutrophil degranulates using biotin-FLF-CMK largely eliminated activation of IL-36b but not of IL-36g”.

B4: Recombinant poly-histidine-tagged caspase-3 (protein)
chain: SGISLDNSYKMDYPEMGLCIIINNKNFHKSTGMTSRSGTDVDAANLRETFRNLKYEVRNKNDLTREEIVELMRDVSKEDHSKRSSFVCVLLSHGEEGIIFGTNGPVDLKKITNFFRGDRCRSLTGKPKLFIIQACRGTELDCGIETDSGVDDDMACHKIPVEADFLYAYSTAPGYYSWRNSKDGSWFIQSLCAMLKQYADKLEFMHILTRVNRKVATEFESFSFDATFHAKKQIPCIVSMLTKELYFYH
Turning to B4, the “proteolytic processing, immunoblot” value in data set [4] is “DEVD-modified IL-36β (IL-36b^DEVD) and DEVD-modified IL-36γ (IL-36g^DEVD) was readily processed by caspase-3”; in data set [5], “DEVD-modified IL-36β (IL-36b^DEVD) and DEVD-modified IL-36γ (IL-36g^DEVD) was readily processed by caspase-3”.
